For test [1], the target named is EV-D68 mature virion, strain US/MO/14-18947 (clade B) (enterovirus D68 strain US/MO/14-18947).
Test [2] has the same target. The test is described as follows: BLI. On the technique in general: In BLI a coated tip is dipped into the sample, and binding shifts an interference pattern.

The text below walks through data of paper PMC8131599.

The term pKd denotes the Kd on a negative log10 scale, so that one unit is a factor of ten. One may read the koff as the first-order rate constant of dissociation.

pKd: −log10 of the molar value.

In test [1], “anti-EV-D68 MAb 8F12 (murine, IgG2b) (antibody)” registered an IC50 of neutralization of EV-D68 strain 18947 on RD cells (cell viability, CellTiter-Glo) of 4 ng/mL and a neutralization concentration (lowest antibody concentration that fully inhibits cytopathic effect) against strain 18947 of 0.06 µg/mL.

Regarding “anti-EV-D68 MAb 8F12 (murine, IgG2b) (from UniProt P01867)”, in test [2], the pKd is 9.04 and the dissociation rate constant (koff) was 0.00035 s⁻¹.
